From patent US20260015399A1 (Boehringer Ingelheim, published 2026) come the findings set out here.

In general, Ki refers to the equilibrium dissociation constant of an inhibitor or competing ligand from its target.

This test addresses T1, human NPY2 receptor (human, UniProt P49146 1-381).
T1 construct: whole, on cells; also called hNPY2-R; hNPY2R
T1 sequence (looked up): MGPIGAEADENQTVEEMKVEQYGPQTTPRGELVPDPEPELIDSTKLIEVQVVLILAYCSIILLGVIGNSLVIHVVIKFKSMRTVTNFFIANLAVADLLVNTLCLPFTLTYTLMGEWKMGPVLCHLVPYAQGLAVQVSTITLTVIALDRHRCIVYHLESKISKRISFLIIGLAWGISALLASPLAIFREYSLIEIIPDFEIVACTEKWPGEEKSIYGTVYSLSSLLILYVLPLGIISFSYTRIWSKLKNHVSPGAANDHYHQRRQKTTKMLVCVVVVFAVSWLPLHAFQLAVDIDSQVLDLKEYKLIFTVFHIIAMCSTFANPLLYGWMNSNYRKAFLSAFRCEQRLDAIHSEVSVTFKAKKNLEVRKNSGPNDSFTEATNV
Put plainly: RLB: displacement of 125I-PYY(1-36) from hNPY2R membranes. For orientation: In a radioligand displacement assay an active substance lowers the binding of a labelled ligand.

*1 amine or outer side, *2 acyl side, *3 side chain or, on linkers, in order; H or OH if unused. Side-chain parts run from the residue outwards. The star is where a group is joined. C18 diacid = O=C(O)CCCCCCCCCCCCCCCCC(=O)*; γGlu = O=C(O)[C@H](CCC(=O)[*:2])N[*:1]; Isovaleryl = CC(C)CC(=O)*; Ahx = NCCCCCC(=O)O

B1: Compound 142 (peptide)
peptide: Isovaleryl-APEK([Ahx-γGlu-C18 diacid])PEEDALPEEIQRYYVSLRHYYNWLTRQRY-NH2
SMILES: CC[C@H](C)[C@H](NC(=O)[C@H](CCC(=O)O)NC(=O)[C@H](CCC(=O)O)NC(=O)[C@@H]1CCCN1C(=O)[C@H](CC(C)C)NC(=O)[C@H](C)NC(=O)[C@H](CC(=O)O)NC(=O)[C@H](CCC(=O)O)NC(=O)[C@H](CCC(=O)O)NC(=O)[C@@H]1CCCN1C(=O)[C@H](CCCCNC(=O)CCCCCNC(=O)CC[C@H](NC(=O)CCCCCCCCCCCCCCCCC(=O)O)C(=O)O)NC(=O)[C@H](CCC(=O)O)NC(=O)[C@@H]1CCCN1C(=O)[C@H](C)NC(=O)CC(C)C)C(=O)N[C@@H](CCC(N)=O)C(=O)N[C@@H](CCCNC(=N)N)C(=O)N[C@@H](Cc1ccc(O)cc1)C(=O)N[C@@H](Cc1ccc(O)cc1)C(=O)N[C@H](C(=O)N[C@@H](CO)C(=O)N[C@@H](CC(C)C)C(=O)N[C@@H](CCCNC(=N)N)C(=O)N[C@@H](Cc1c[nH]cn1)C(=O)N[C@@H](Cc1ccc(O)cc1)C(=O)N[C@@H](Cc1ccc(O)cc1)C(=O)N[C@@H](CC(N)=O)C(=O)N[C@@H](Cc1c[nH]c2ccccc12)C(=O)N[C@@H](CC(C)C)C(=O)N[C@H](C(=O)N[C@@H](CCCNC(=N)N)C(=O)N[C@@H](CCC(N)=O)C(=O)N[C@@H](CCCNC(=N)N)C(=O)N[C@@H](Cc1ccc(O)cc1)C(N)=O)[C@@H](C)O)C(C)C
B1 yielded a Ki of 3.97 nM.

B2: Compound 149 (peptide)
peptide: Isovaleryl-APAK([Ahx-γGlu-C18 diacid])PEEDASPEESQRYYVSLRHYYNWLTRQRY-NH2
SMILES: CC(C)CC(=O)N[C@@H](C)C(=O)N1CCC[C@H]1C(=O)N[C@@H](C)C(=O)N[C@@H](CCCCNC(=O)CCCCCNC(=O)CC[C@H](NC(=O)CCCCCCCCCCCCCCCCC(=O)O)C(=O)O)C(=O)N1CCC[C@H]1C(=O)N[C@@H](CCC(=O)O)C(=O)N[C@@H](CCC(=O)O)C(=O)N[C@@H](CC(=O)O)C(=O)N[C@@H](C)C(=O)N[C@@H](CO)C(=O)N1CCC[C@H]1C(=O)N[C@@H](CCC(=O)O)C(=O)N[C@@H](CCC(=O)O)C(=O)N[C@@H](CO)C(=O)N[C@@H](CCC(N)=O)C(=O)N[C@@H](CCCNC(=N)N)C(=O)N[C@@H](Cc1ccc(O)cc1)C(=O)N[C@@H](Cc1ccc(O)cc1)C(=O)N[C@H](C(=O)N[C@@H](CO)C(=O)N[C@@H](CC(C)C)C(=O)N[C@@H](CCCNC(=N)N)C(=O)N[C@@H](Cc1c[nH]cn1)C(=O)N[C@@H](Cc1ccc(O)cc1)C(=O)N[C@@H](Cc1ccc(O)cc1)C(=O)N[C@@H](CC(N)=O)C(=O)N[C@@H](Cc1c[nH]c2ccccc12)C(=O)N[C@@H](CC(C)C)C(=O)N[C@H](C(=O)N[C@@H](CCCNC(=N)N)C(=O)N[C@@H](CCC(N)=O)C(=O)N[C@@H](CCCNC(=N)N)C(=O)N[C@@H](Cc1ccc(O)cc1)C(N)=O)[C@@H](C)O)C(C)C
The molecule B2 yielded a Ki of 3.97 nM.

B3: Compound 143 (peptide)
peptide: Isovaleryl-APEK([Ahx-γGlu-C18 diacid])PEEDSTPEELQRYYVSLRHYYNWLTRQRY-NH2
SMILES: CC(C)CC(=O)N[C@@H](C)C(=O)N1CCC[C@H]1C(=O)N[C@@H](CCC(=O)O)C(=O)N[C@@H](CCCCNC(=O)CCCCCNC(=O)CC[C@H](NC(=O)CCCCCCCCCCCCCCCCC(=O)O)C(=O)O)C(=O)N1CCC[C@H]1C(=O)N[C@@H](CCC(=O)O)C(=O)N[C@@H](CCC(=O)O)C(=O)N[C@@H](CC(=O)O)C(=O)N[C@@H](CO)C(=O)N[C@H](C(=O)N1CCC[C@H]1C(=O)N[C@@H](CCC(=O)O)C(=O)N[C@@H](CCC(=O)O)C(=O)N[C@@H](CC(C)C)C(=O)N[C@@H](CCC(N)=O)C(=O)N[C@@H](CCCNC(=N)N)C(=O)N[C@@H](Cc1ccc(O)cc1)C(=O)N[C@@H](Cc1ccc(O)cc1)C(=O)N[C@H](C(=O)N[C@@H](CO)C(=O)N[C@@H](CC(C)C)C(=O)N[C@@H](CCCNC(=N)N)C(=O)N[C@@H](Cc1c[nH]cn1)C(=O)N[C@@H](Cc1ccc(O)cc1)C(=O)N[C@@H](Cc1ccc(O)cc1)C(=O)N[C@@H](CC(N)=O)C(=O)N[C@@H](Cc1c[nH]c2ccccc12)C(=O)N[C@@H](CC(C)C)C(=O)N[C@H](C(=O)N[C@@H](CCCNC(=N)N)C(=O)N[C@@H](CCC(N)=O)C(=O)N[C@@H](CCCNC(=N)N)C(=O)N[C@@H](Cc1ccc(O)cc1)C(N)=O)[C@@H](C)O)C(C)C)[C@@H](C)O
On to B3, for which the affinity corresponds to a Ki of 3.42 nM.

B4: Compound 144 (peptide)
peptide: Isovaleryl-APEK([Ahx-γGlu-C18 diacid])PEEDQTPEELQRYYVSLRHYYNWLTRQRY-NH2
SMILES: CC(C)CC(=O)N[C@@H](C)C(=O)N1CCC[C@H]1C(=O)N[C@@H](CCC(=O)O)C(=O)N[C@@H](CCCCNC(=O)CCCCCNC(=O)CC[C@H](NC(=O)CCCCCCCCCCCCCCCCC(=O)O)C(=O)O)C(=O)N1CCC[C@H]1C(=O)N[C@@H](CCC(=O)O)C(=O)N[C@@H](CCC(=O)O)C(=O)N[C@@H](CC(=O)O)C(=O)N[C@@H](CCC(N)=O)C(=O)N[C@H](C(=O)N1CCC[C@H]1C(=O)N[C@@H](CCC(=O)O)C(=O)N[C@@H](CCC(=O)O)C(=O)N[C@@H](CC(C)C)C(=O)N[C@@H](CCC(N)=O)C(=O)N[C@@H](CCCNC(=N)N)C(=O)N[C@@H](Cc1ccc(O)cc1)C(=O)N[C@@H](Cc1ccc(O)cc1)C(=O)N[C@H](C(=O)N[C@@H](CO)C(=O)N[C@@H](CC(C)C)C(=O)N[C@@H](CCCNC(=N)N)C(=O)N[C@@H](Cc1c[nH]cn1)C(=O)N[C@@H](Cc1ccc(O)cc1)C(=O)N[C@@H](Cc1ccc(O)cc1)C(=O)N[C@@H](CC(N)=O)C(=O)N[C@@H](Cc1c[nH]c2ccccc12)C(=O)N[C@@H](CC(C)C)C(=O)N[C@H](C(=O)N[C@@H](CCCNC(=N)N)C(=O)N[C@@H](CCC(N)=O)C(=O)N[C@@H](CCCNC(=N)N)C(=O)N[C@@H](Cc1ccc(O)cc1)C(N)=O)[C@@H](C)O)C(C)C)[C@@H](C)O
B4 had a Ki of 9.76 nM.

B5: Compound 148 (peptide)
peptide: Isovaleryl-APEK([Ahx-γGlu-C18 diacid])PEEDATPEELQRYYVTLRHYYNWLTRQRY-NH2
SMILES: CC(C)CC(=O)N[C@@H](C)C(=O)N1CCC[C@H]1C(=O)N[C@@H](CCC(=O)O)C(=O)N[C@@H](CCCCNC(=O)CCCCCNC(=O)CC[C@H](NC(=O)CCCCCCCCCCCCCCCCC(=O)O)C(=O)O)C(=O)N1CCC[C@H]1C(=O)N[C@@H](CCC(=O)O)C(=O)N[C@@H](CCC(=O)O)C(=O)N[C@@H](CC(=O)O)C(=O)N[C@@H](C)C(=O)N[C@H](C(=O)N1CCC[C@H]1C(=O)N[C@@H](CCC(=O)O)C(=O)N[C@@H](CCC(=O)O)C(=O)N[C@@H](CC(C)C)C(=O)N[C@@H](CCC(N)=O)C(=O)N[C@@H](CCCNC(=N)N)C(=O)N[C@@H](Cc1ccc(O)cc1)C(=O)N[C@@H](Cc1ccc(O)cc1)C(=O)N[C@H](C(=O)N[C@H](C(=O)N[C@@H](CC(C)C)C(=O)N[C@@H](CCCNC(=N)N)C(=O)N[C@@H](Cc1c[nH]cn1)C(=O)N[C@@H](Cc1ccc(O)cc1)C(=O)N[C@@H](Cc1ccc(O)cc1)C(=O)N[C@@H](CC(N)=O)C(=O)N[C@@H](Cc1c[nH]c2ccccc12)C(=O)N[C@@H](CC(C)C)C(=O)N[C@H](C(=O)N[C@@H](CCCNC(=N)N)C(=O)N[C@@H](CCC(N)=O)C(=O)N[C@@H](CCCNC(=N)N)C(=O)N[C@@H](Cc1ccc(O)cc1)C(N)=O)[C@@H](C)O)[C@@H](C)O)C(C)C)[C@@H](C)O
With B5, the Ki stood at 2.85 nM.

B6: Compound 151 (peptide)
peptide: Isovaleryl-APEK([Ahx-γGlu-C18 diacid])PEEDSSPEELQRYYVALRHYYNWLTRQRY-NH2
SMILES: CC(C)CC(=O)N[C@@H](C)C(=O)N1CCC[C@H]1C(=O)N[C@@H](CCC(=O)O)C(=O)N[C@@H](CCCCNC(=O)CCCCCNC(=O)CC[C@H](NC(=O)CCCCCCCCCCCCCCCCC(=O)O)C(=O)O)C(=O)N1CCC[C@H]1C(=O)N[C@@H](CCC(=O)O)C(=O)N[C@@H](CCC(=O)O)C(=O)N[C@@H](CC(=O)O)C(=O)N[C@@H](CO)C(=O)N[C@@H](CO)C(=O)N1CCC[C@H]1C(=O)N[C@@H](CCC(=O)O)C(=O)N[C@@H](CCC(=O)O)C(=O)N[C@@H](CC(C)C)C(=O)N[C@@H](CCC(N)=O)C(=O)N[C@@H](CCCNC(=N)N)C(=O)N[C@@H](Cc1ccc(O)cc1)C(=O)N[C@@H](Cc1ccc(O)cc1)C(=O)N[C@H](C(=O)N[C@@H](C)C(=O)N[C@@H](CC(C)C)C(=O)N[C@@H](CCCNC(=N)N)C(=O)N[C@@H](Cc1c[nH]cn1)C(=O)N[C@@H](Cc1ccc(O)cc1)C(=O)N[C@@H](Cc1ccc(O)cc1)C(=O)N[C@@H](CC(N)=O)C(=O)N[C@@H](Cc1c[nH]c2ccccc12)C(=O)N[C@@H](CC(C)C)C(=O)N[C@H](C(=O)N[C@@H](CCCNC(=N)N)C(=O)N[C@@H](CCC(N)=O)C(=O)N[C@@H](CCCNC(=N)N)C(=O)N[C@@H](Cc1ccc(O)cc1)C(N)=O)[C@@H](C)O)C(C)C
notes: printed structure identical to Compound 24
Molecule B6 came in with a Ki of 1.68 nM.
